Measured values as given in patent US20260139023A1.

Target: full-length integrin αVβ5 ectopically expressed on HEK293T cells (UniProt P06756)
Assay: cell-based or functional assay

Sequence of full-length integrin αVβ5 ectopically expressed on HEK293T cells (P06756 31-1048 limits assumed, chain 1 of 2): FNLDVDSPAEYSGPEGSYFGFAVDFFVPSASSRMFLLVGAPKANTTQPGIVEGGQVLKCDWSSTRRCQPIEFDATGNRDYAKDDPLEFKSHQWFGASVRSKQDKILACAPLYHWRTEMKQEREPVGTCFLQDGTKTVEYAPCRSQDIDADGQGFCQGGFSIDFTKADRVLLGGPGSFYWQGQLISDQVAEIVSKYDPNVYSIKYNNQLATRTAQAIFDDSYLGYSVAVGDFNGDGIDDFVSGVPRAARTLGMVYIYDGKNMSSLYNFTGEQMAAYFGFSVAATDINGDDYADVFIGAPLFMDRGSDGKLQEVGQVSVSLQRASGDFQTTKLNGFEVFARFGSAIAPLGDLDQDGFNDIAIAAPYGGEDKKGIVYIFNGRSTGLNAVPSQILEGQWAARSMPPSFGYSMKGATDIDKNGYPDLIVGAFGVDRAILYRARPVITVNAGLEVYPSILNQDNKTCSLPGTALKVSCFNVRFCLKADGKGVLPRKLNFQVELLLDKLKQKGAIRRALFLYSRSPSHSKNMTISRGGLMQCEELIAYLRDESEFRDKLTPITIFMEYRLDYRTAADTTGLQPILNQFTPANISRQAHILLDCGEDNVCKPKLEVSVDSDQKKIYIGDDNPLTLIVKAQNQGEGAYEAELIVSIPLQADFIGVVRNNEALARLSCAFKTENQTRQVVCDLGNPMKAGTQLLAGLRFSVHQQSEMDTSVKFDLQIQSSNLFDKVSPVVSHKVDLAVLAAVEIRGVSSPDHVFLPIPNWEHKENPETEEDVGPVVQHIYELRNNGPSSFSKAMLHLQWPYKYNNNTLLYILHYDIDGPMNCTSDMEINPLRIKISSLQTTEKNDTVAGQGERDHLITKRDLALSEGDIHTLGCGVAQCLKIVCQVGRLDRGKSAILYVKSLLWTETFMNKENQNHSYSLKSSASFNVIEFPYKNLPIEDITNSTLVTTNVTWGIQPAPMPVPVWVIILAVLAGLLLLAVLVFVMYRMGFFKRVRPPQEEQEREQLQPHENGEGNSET
Sequence of full-length integrin αVβ5 ectopically expressed on HEK293T cells (P18084 24-799 limits assumed, chain 2 of 2, further chain): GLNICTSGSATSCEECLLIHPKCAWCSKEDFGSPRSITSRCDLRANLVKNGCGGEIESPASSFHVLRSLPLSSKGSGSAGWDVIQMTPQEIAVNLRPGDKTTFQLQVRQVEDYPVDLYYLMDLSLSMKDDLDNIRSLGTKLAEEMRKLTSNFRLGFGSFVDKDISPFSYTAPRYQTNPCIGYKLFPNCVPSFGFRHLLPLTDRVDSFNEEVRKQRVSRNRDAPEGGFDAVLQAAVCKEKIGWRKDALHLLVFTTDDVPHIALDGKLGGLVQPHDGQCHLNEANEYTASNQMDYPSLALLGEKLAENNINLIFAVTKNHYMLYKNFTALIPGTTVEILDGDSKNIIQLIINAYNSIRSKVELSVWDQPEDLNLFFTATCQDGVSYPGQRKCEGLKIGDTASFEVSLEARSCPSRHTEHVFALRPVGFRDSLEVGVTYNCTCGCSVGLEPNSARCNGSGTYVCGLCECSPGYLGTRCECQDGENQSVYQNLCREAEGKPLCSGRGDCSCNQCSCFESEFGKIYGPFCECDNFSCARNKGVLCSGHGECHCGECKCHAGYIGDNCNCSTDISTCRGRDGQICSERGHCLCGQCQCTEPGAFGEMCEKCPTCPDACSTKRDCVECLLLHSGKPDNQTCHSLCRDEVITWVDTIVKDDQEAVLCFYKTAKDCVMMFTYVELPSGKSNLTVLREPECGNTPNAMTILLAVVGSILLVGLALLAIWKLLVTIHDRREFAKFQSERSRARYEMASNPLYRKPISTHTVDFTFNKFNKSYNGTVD

concentration at maximal integrin signaling (pFAK western blot, HEK293T cells pretreated with Hsp90α): 0.1 nM
fold more potent integrin signaling than WT irisin: 5 to 10 fold
Substance: irisin N45Q mutant (irisin glycosylation mutant, recombinant, from mammalian Expi293 cells) (from UniProt Q8K3V5 60-171) (ligand)
